PMC1291349, “Molecular Identification of a Malaria Merozoite Surface Sheddase” (PLoS Pathogens, 2005)

Columns and labels:
[1] = target: PfSUB2T, 72-kDa terminal intracellular form of PfSUB2, HA3-tagged (P. falciparum) (UniProt O97364)
subtilisin BPN′ = target: T1, subtilisin BPN′ (UniProt P00782 108-382); test: enzyme inhibition kinetics (Ki determination); hydrolysis of N-succinyl-L-Ala-L-Ala-L-Pro-L-Phe-p-nitroanilide by subtilisin BPN′ with PfSUB2PD; Ki determined as in ref. 33; data not shown; conditions: both partners purified
T1 construct: subtilisin BPN′, a bacterial subtilisin; source: bought: Sigma
T1 sequence (looked up): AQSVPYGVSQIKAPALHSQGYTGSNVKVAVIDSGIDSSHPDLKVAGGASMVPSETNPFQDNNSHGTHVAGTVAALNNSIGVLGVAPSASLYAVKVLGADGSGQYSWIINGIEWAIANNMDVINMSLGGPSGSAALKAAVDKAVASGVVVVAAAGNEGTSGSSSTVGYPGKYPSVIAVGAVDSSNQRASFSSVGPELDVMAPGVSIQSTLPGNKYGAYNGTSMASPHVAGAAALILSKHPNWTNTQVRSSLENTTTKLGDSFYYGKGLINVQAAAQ

Chain of PfSUB2T, 72-kDa terminal intracellular form of PfSUB2, HA3-tagged (P. falciparum) (O97364 688-1342): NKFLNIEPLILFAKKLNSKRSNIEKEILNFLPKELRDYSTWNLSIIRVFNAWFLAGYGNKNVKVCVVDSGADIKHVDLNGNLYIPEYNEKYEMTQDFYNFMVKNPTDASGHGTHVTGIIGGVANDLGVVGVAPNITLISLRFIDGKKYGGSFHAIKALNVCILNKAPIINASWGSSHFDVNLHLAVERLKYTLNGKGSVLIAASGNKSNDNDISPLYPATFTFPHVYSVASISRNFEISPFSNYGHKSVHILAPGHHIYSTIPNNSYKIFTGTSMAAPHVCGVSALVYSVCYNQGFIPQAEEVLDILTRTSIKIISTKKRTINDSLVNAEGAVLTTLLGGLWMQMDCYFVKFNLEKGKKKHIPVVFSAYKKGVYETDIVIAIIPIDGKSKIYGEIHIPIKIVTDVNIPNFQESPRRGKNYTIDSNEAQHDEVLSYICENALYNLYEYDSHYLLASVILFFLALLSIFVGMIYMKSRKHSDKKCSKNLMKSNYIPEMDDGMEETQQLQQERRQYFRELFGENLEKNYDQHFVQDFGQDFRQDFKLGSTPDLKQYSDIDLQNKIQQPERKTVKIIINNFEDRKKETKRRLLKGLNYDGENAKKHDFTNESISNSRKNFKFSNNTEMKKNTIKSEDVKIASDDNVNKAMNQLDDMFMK

B1: PfSUB2PD (recombinant PfSUB2 propeptide, Asn22-Leu687) (domain or fragment)
chain: NNNNNYYLSNIELYNYKLRKRNRILNNNINDRKSFLSDLEQNYKPLFDIYELSANFEKRRKELEKKTKGEENEIEKKKENDLEEKKENEIEKKKENDLEKEYNDVINLLELSLSSEYKELNADVSNNDNSGHEENNKHKLNKKNSSNYKNDKSLDELIKGAILKLKQNPNIKNKNMLDYDKIFKIIKEKLINKNLASNKIKGGDNEKLKEEKKQSDISTNVEVKKDIINDQLNKGIPTKIENKDDMINKESNKEDITNEGKSNSLNNLNTLNNDGNIITKVYDHYTIVTNSNDILNDISIDASDISKNSIGGINIPFNENDNSSFTHQRYIVLSNNGEKKYKIVLMTKNPKFMDMDGIYDEEEKKESLIELNQKVNKEENTNLYDGTGTLYYGKKSKKEKENTQQKGGNNPNVDINILNNNNNNNNNNNNNSNNNSNSMNDEEINYNNNNNKESPSMFRRFINFLSFSGNENETEDTLIYHNKNDNSYKNKKEGTGKNNDNNDPNNNNNKKILLNVDKLVDQYLLNLKNNHTSKQELILVLKGELDLHSKNMKNVINNAKKNLEKYFKEHFKEFDKISYDISTPINFLCIFIPTLFDMNNMDLLKQALLILHNDLHEYVENWSFSSTYHTYEADYIKEQDSVYDRSPKKKYIKASKKLYNNKYSFL
notes: PfSUB2, subtilisin-like protease 2 of P. falciparum T9/96, propeptide region Asn22-Leu687, amplified from the synthetic gene pfsub2synth; Asn22 is the predicted N-terminus after signal peptide removal; Cleavable 46-residue N-terminal fusion peptide with His6 and S-tag, from the vector pET-30Xa/LIC; not shown: His6, N-terminal, kept; S-tag, N-terminal, kept
IC50 of inhibition of shedding of AMA1 and MSP1 (MESH activity) from isolated 3D7 merozoites; PfSUB2PD titrated from 1.2 μM to 0.075 μM [1]: 300 nM | Ki (subtilisin BPN′): 1200 nM
